For the test, the target named is Rfa3 DNA-binding domain-E (DBD-E), OB domain, residues 1-99 (S. cerevisiae, UniProt P26755 1-99, fluorescent label NT-495 (Monolith NT protein-labeling Kit Blue-Cys) on free cysteine residues). In words: MST.

In general, EC50 refers to the concentration needed to bring the measured effect to its halfway point.

Rfa3 DNA-binding domain-E (DBD-E), OB domain, residues 1-99, sequence (P26755 1-99): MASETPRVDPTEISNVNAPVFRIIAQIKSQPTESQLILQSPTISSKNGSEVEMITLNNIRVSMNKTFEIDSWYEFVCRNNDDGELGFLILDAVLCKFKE

B1: Rfa1 DBD-A (residues 178-294) phosphomimetic S178D (domain or fragment)
chain: DQKTRPIFAIEQLSPYQNVWTIKARVSYKGEIKTWHNQRGDGKLFNVNFLDTSGEIRATAFNDFATKFNEILQEGKVYYVSKAKLQPAKPQFTNLTHPYELNLDRDTVIEECFDESN
B1 displayed an EC50 of 36 µM.

(Values after article PMC6303327 (2018).)
